B2: CD40bp fused to the activation domain of GAL4 (other, not shown: large carriers)
chain: MESSKKMDSPGALQTNPPLKLHTDRSAGTPVFVPEQGGYKEKFVKTVEDKYKCEKCHLVLCSPKQTECGHRFCESCMAALLSSSSPKCTACQESIVKDKVFKDNCCKREILALQIYCRNESRGCAEQLMLGHLVHLKNDCHFEELPCVRPDCKEKVLRKDLRDHVEKACKYREATCSHCKSQVPMIALQKHEDTDCPCVVVSCPHKCSVQTLLRSELSAHLSECVNAPSTCSFKRYGCVFQGTNQQIKAHEASSAVQHVNLLKEWSNSLEKKVSLLQNESVEKNKSIQSLHNQICSFEIEIERQKEMLRNNESKILHLQRVIDSQAEKLKELDKEIRPFRQNWEEADSMKSSVESLQNRVTELESVDKSAGQVARNTGLLESQLSRHDQMLSVHDIRLADMDLGFQVLETASYNGVLIWKIRDYKRRKQEAVMGKTLSLYSQPFYTGYFGYKMCARVYLNGDGMGKGTHLSLFFVIMRGEYDALLPWPFKQKVTLMLMDQGSSRRHLGDAFKPDPNSSSFKKPTGEMNIASGCPVFVAQTVLENGTYIKDDTIFIKVIVDTSDLPDP
notes: Prey from a human B-cell cDNA library; also called CD40bp (yeast prey, pACT)

In experiment [1] the target is [35S]methionine-labeled luciferase protein (UniProt P08659 1-550 = luciferase, limits assumed, [35S]methionine label). Kind of experiment: GST pull-down of in vitro translated 35S-labeled protein, autoradiography. The method, then:
GST Fusion Protein Expression and In Vitro Binding Assay—Native (CD40T) and mutant (CD40A) CD40 sequences used in the construction of the yeast bait vectors were excised and subcloned into the glutathione S-transferase ("GST") fusion protein vector pGSTag (as described in Ron et al. (1992) *BioTechniques* 13:866-869) and transformed into the *Escherichia coli* strain BL21 […] pLysS (as described in Studier et al. (1991) *J. Mol. Bio.* 219:37-44). GST and GST fusion proteins were prepared using published procedures of Studier et al. (1991) supra, and the recombinant proteins were immobilized onto glutathione-agarose beads at a concentration of about 8 mg/ml (as described in Harper et al. (1993) supra).
Figure 2: FIGS. 2A and 2B show the interaction of in vitro translated CD40bp with GST fusion proteins. [^35S]Methionine-labeled CD40bp or luciferase protein as control was incubated with GST alone, GSTCD40T (native CD40 cytoplasmic domain), or GSTCD40A (mutant CD40 cytoplasmic domain $Thr^234 \rightarrow Ala$). Following incubation and washing, GST beads were boiled in SDS-sample buffer and resolved on a 10% acrylamide gel, and bound protein was visualized by autoradiography.

The target in experiment [2] is yeast Ser-Thr kinase SNF1 fused to the DNA-binding domain of GAL4 (yeast, UniProt P04386 1-147; P06782 1-633, limits assumed). The experiment in a line: yeast two-hybrid cotransformation, beta-galactosidase filter assay. The text has this:
(§1) Yeast Two-hybrid Screen—Using a modification of the method of Harper et al. (1993) *Cell* 75:805-816, a hybrid gene encoding the GAL4 DNA-binding domain (amino acids 1-147), hemagglutinin ("HA") epitope tag, and CD40 cytoplasmic region (amino acids 216-279) was constructed in the yeast bait vector pAS1CYH2. This construct was designated GAL4CD40, and expression of the fusion protein was confirmed by anti-HA immunoblotting. This bait plasmid was cotransformed with a human B-cell cDNA expression library (prey) fused to the activation domain of GAL4 in the pACT plasmid. Interaction between bait- and prey-encoded genes in the Y190 yeast strain reconstitutes GAL4 as an active transcriptional complex, allowing growth in the absence of histidine and activation of the β-galactosidase reporter gene. Thirty-six of the 10^6 transformants screened grew in the absence of histidine and had detectable β-galactosidase staining within 10 minutes of incubation with the chromogenic substrate 5-bromo-4-chloro-3-indolyl β-D-galactoside. […] Cotransformation assays were repeated in the yeast Y190 strain, where CD40bp fused to the activation domain of GAL4 was cotransformed with native CD40 (pCD40T) or the indicated heterologous baits expressed as fusions with the DNA-binding domain of GAL4. […]

For experiment [3], the target named is B2. The experiment is described as above.
Source text: as §1

Chain of [35S]methionine-labeled luciferase protein (P08659 whole entry, the tested form may be a part): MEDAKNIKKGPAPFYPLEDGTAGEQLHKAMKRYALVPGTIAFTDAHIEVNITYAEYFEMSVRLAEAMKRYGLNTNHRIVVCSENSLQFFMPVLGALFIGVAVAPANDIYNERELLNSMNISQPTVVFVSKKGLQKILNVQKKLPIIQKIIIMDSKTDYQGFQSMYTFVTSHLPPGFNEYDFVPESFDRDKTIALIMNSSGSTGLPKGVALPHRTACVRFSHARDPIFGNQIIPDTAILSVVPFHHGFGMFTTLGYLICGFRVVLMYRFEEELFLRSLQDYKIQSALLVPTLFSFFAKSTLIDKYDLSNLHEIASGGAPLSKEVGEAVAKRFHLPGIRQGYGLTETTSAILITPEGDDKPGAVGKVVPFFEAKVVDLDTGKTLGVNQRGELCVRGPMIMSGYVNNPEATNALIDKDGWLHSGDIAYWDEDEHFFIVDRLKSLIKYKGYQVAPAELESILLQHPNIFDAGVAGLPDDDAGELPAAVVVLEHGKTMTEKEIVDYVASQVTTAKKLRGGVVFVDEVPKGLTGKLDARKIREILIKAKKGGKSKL

B1: GSTCD40T (GST fused to the native CD40 cytoplasmic domain) (other, human, UniProt P25942 216-277, looked up)
chain: KKVAKKPTNKAPHPKQEPQEINFPDDLPGSNTAAPVQETLHGCQPVTQEDGKESRISVQERQ
notes: range 216-279; Immobilized on glutathione-agarose beads; also called native CD40 (GSTCD40T); not shown: glutathione S-transferase of the vector pGSTag
On to B1, for which the binding result in experiment [1] is given as “no binding”.

As for B2, the binding result in experiment [2] is recorded as “no binding”.

B3: cytoplasmic domain of the p55 TNF receptor (amino acids 206-426) fused to the DNA-binding domain of GAL4 (other, UniProt P04386 1-147, looked up)
chain: MKLLSSIEQACDICRLKKLKCSKEKPKCAKCLKNNWECRYSPKTKRSPLTRAHLTEVESRLERLEQLFLLIFPREDLDMILKMDSLQDIKALLTGLFVQDNVNKDAVTDRLASVETDMPLTLRQHRISATSSSEESSNKGQRQLTVSRYQRWKSKLYSIVCGKSTPEKEGELEGTTTKPLAPNPSFSPTPGFTPTLGFSPVPSSTFTSSSTYTPGDCPNFAAPRREVAPPYQGADPILATALASDPIPNPLQKWEDSAHKPQSLDTDDPATLYAVVENVPPLRWKEFVRRLGLSDHEIDRLELQNGRCLREAQYSMLATWRRRTPRREATLELLGRVLRDMDLLGCLEDIEEALCGPAALPPAPSLLR
notes: The numbering probably counts on the mature receptor; also called pTNFR
B3: the binding result in experiment [3] is given as “no binding”.

Values taken from patent US7544481 (REGENTS OF THE UNIVERSITY OF MICHIGAN, dated 2009).
